Test [1] deals with induced psoriatic lesions. As to the kind of experiment: Humanized mouse psoriasis xenograft model (epidermal ridge thickness). In kind it is in vivo. The settings on record: mean±s.e.m.; BNX mice. On the procedure:
A mouse xenograft model was employed to evaluate the prophylactic efficacy of clone 68F2 on the development of induced psoriatic lesions. Specifically, BNX mice were transplanted with 5 mm diameter full-thickness skin biopsies from non-involved skin from psoriasis patients (1 per mouse). After 3 weeks, the transplants were injected with 0.5×10^6 activated PBMCs. Treatment of mice with clone 68F2, anti-TNF antibody (Remicade), or betamethasone dipropionate (positive control) was begun 1 day before the activated cells were injected into the transplants.
Treatment efficacy was determined by epidermal ridge thickness, as measured by light microscopy. Significance between groups was analyzed statistically using analysis of variance (ANOVA) followed by post-hoc Least Square Difference (LSD) tests to establish statistical significance differences between treatment groups. A value of p<0.05 denoted a significant difference between groups.
In general terms: In xenograft studies the graft and the host belong to different species.

Test [2] has as its target T1, cynomolgus monkey IL-6 (Macaca fascicularis, UniProt P79341).
T1 construct: His
Put plainly: Surface plasmon resonance (Biacore), cynomolgus monkey IL-6. In kind it is binding. The settings on record: purified chain-shuffled Fabs. As for the experimental part: VL chain shuffling was used to improve the affinity of the Fabs 17F10, 18C7, 18C9, 18C11, 20A4, 29B11, 16D2 and 28A6. In this method, the heavy chain of these clones (as a VHCH1 fragment) was reintroduced into the primary phagemid-light chain library (see Example 1). Affinity selections were performed to select for chain shuffled Fabs with an improved affinity for IL-6. The binding kinetics of chain shuffled Fabs were evaluated by surface plasmon resonance (Biacore) using both bacterially and eukaryotically produced human IL-6, and cynomolgus monkey IL-6 (Tables 5-7). The VH and VL amino acid sequences of exemplary IL-6-specific Fabs selected by the VL chain shuffling method are set forth in Table 14 below.
In general terms: Surface plasmon resonance follows binding to a sensor surface in real time, without labels.

In a further test the test system is IL-6. As to the kind of experiment: Serum amyloid A (SAA) mouse model, induction by injected IL-6. The format is in vivo. Also on record: SAA, Mean / SAA, Mouse1 / SAA, Mouse2 / SAA, Mouse3 / SAA, Mouse4 / SAA, Mouse5 / SAA, Mouse6: unit not given here. Conditions: for SAA, Mouse1 / SAA, Mouse2 / SAA, Mouse3 / SAA, Mouse4 / SAA, Mouse5 / SAA, Mouse6 / SAA, Mean: 0.1 μg IL-6; for SAA, Mean: mean of 6 mice; for in vivo efficacy (block of SAA induction): Balb/c mice, i.v., 0.1 ug IL-6. On the procedure:
The in vivo efficacy of clones 68F2 and 61H7 was further investigated by measuring the ability of these antibodies to block serum amyloid A (SAA) induction in response to injected IL-6. General methods for performing this assay are set forth in WO2006/119115A2, which is hereby incorporated by reference in its entirety. […] Four hours after administration of the antibody, the mice were injected with 0.1 ug of IL-6. After a further 16 hours, blood was taken from the mice and the concentration of Serum Amyloid A was determined by ELISA. The dose responses are also graphically depicted in FIG. 13.

For the next test, the system named is RXF393 cells. As to the kind of experiment: Renal cell cancer mouse xenograft model. In kind it is in vivo. On the procedure:
The in vivo efficacy of clones 68F2 was investigated in a renal cell cancer mouse xenograft model. […] Briefly, RXF393 cells (2×10^6) were injected subcutaneously at both lateral sides of a nude mouse. Tumors were allowed to grow to a volume between of 50 en 300 mm^3, prior to antibody administration. 90% of the injected mice developed a tumor. 40 mice were split into 5 groups of 8 mice. Each group was received intraperatoneal injection of either PBS (control) or a specific dose of clone 68F2 (1, 3, 10, or 30 mg/kg). Tumor size and survival was monitored twice per week.

The target in a further test is T2, human IL-6 (Homo sapiens, UniProt P05231).
T2 construct: host or cells: IL-6 added from outside to murine 7TD1 hybridoma cells
Put plainly: IL-6 neutralizing bioassay, B9 cell proliferation ([3H]thymidine). In kind it is cell-based. The settings on record: B9 cells; relative to 68F2 average IC50. As for the experimental part: The in vitro efficacy of clones 129D3, 68F2, 61H7, 133A9, 133H2, 133E5 and 132E7 were determined using a cell-based neutralizing bioassay using the B9 cell line, essentially as described in Helle et al. 1988, Eur. J. Immunol 18; 1535-1540. B9 cells are derived from the murine B cell hybridoma cell line B13.29, which require IL-6 for survival and proliferation and respond to very low concentrations of human IL-6. […] B9 cells were seeded in IL-6-free medium at 5000 cells/200 microl in flat-bottom wells in the presence of IL-6, with and without antibodies. Proliferation was measured by a [3H]thymidine pulse at 64-72 h.

The target of test [3] is T3, eukaryotically produced human IL-6 (Homo sapiens, UniProt P05231).
T3 construct: purchased Humanzyme HZ-1044; host or cells: Human Embryonic kidney cells
As to the kind of experiment: Surface plasmon resonance (Biacore), eukaryotically produced human IL-6 coated on CM5 chip. In kind it is binding. The settings on record: for ka / kd: Euk IL-6, purified 24D10 chain-shuffled Fabs; for RANKED euk (off-rate) / Average binding: periplasmic fractions; for RANKED euk (off-rate): 24D10 chain-shuffled Fabs; for Average binding: average over the IL-6 forms.

The target in test [4] is T4, bacterially produced human IL-6 (Homo sapiens, UniProt P05231).
T4 construct: His
As to the kind of experiment: Surface plasmon resonance (Biacore), bacterially produced human IL-6 coated on CM5 chip. The format is binding. The settings on record: for ka / kd: Bact, purified 24D10 chain-shuffled Fabs; for Bact (off-rate): periplasmic fractions, 24D10 chain-shuffled Fabs.

The target in test [5] is T1, cynomolgus monkey IL-6. Put plainly: Surface plasmon resonance (Biacore), cynomolgus monkey IL-6. In kind it is binding. Conditions: periplasmic fractions, 24D10 chain-shuffled Fabs.

Changes are numbered by the printed parent chain.

T2 sequence (P05231 30-212): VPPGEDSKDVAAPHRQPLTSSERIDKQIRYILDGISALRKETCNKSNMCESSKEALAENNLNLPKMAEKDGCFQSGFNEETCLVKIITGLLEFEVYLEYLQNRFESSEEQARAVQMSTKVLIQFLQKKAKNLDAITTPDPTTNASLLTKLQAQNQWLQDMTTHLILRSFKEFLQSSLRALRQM
T4 sequence (P05231 30-212): as above
T3 sequence (P05231 30-212): as above
T1 sequence (P79341 28-212): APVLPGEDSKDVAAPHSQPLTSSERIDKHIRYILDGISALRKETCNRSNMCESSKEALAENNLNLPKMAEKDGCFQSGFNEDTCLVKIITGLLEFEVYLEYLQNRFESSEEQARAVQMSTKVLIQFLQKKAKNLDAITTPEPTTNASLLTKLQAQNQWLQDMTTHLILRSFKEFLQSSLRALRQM

Molecule `CCC(=O)OCC(=O)[C@@]1(OC(=O)CC)[C@@H](C)C[C@H]2[C@@H]3CCC4=CC(=O)C=C[C@]4(C)[C@@]3(F)[C@@H](O)C[C@@]21C` [betamethasone, betamethasone dipropionate] gave an epidermal ridge thickness in test [1] of 83 μm.
Still for that read-out and setting: with Remicade: anti-TNF antibody the figure was 125 μm.

B1: 68F2: anti-IL-6 clone from VL shuffling of 20A4; Fab and human IgG1 formats (antibody, listed as Lama glama, V domains shown)
VH: EVQLQESGPGLVKPSQTLSLTCTVSGGSITTRYYAWSWIRQPPGKGLEWMGVIDYDGDTYYSPSLKSRTSISWDTSKNQFSLQLSSVTPEDTAVYYCARDPDVVTGFHYDYWGQGTQVTVSS
VL: QSALTQPPLVSGTPGQTVTISCAGANNDIGTYAYVSWYQQLPGTAPKLLIYKVTTRASGIPSRFSGSKSGNTASLTISGLQSEDEADYYCASYRNFNNAVFGRGTHLTVLG
For B1, the “Koff HIS-cyIL-6” value with cynomolgus monkey IL-6 [2] is 0.00075 s⁻¹. Also, in the test with IL-6 (Ab dose/mouse 0.31 μg), the “SAA, Mouse1” value amounted to 83; the “SAA, Mouse2” value was found to be 129; the “SAA, Mouse3” value was determined as 116; the “SAA, Mouse4” value is reported as 132. For the same molecule, in the test on IL-6 (Ab dose/mouse 0.31 μg), the “SAA, Mouse5” value is on record as 145; the “SAA, Mouse6” value turned out to be 136; the “SAA, Mean” value is listed as 123.5. Moreover, in the test with IL-6 (Ab dose/mouse 1.25 μg), the “SAA, Mouse1” value stood at 69; the “SAA, Mouse2” value is reported as 67; the “SAA, Mouse3” value is on record as 81; the “SAA, Mouse4” value stood at 73. In the test on IL-6 (Ab dose/mouse 1.25 μg), the “SAA, Mouse5” value came out at 47; the “SAA, Mouse6” value stood at 83; the “SAA, Mean” value turned out to be 70.0. Further, in the test on IL-6 (Ab dose/mouse 5 μg), the “SAA, Mouse1” value is given as 76; the “SAA, Mouse2” value is recorded as 38; the “SAA, Mouse3” value was found to be 46; the “SAA, Mouse4” value is given as 63. For the same molecule, in the test with IL-6 (Ab dose/mouse 5 μg), the “SAA, Mouse5” value is on record as 43; the “SAA, Mouse6” value was 40; the “SAA, Mean” value is 51.0. In addition, the “in vivo efficacy (block of SAA induction)” value in the test on IL-6 is “in vivo efficacy at least equal to the high potency benchmark controls GL18 and CNTO136”. Moreover, the epidermal ridge thickness in test [1] is on record as 125 μm. The same molecule registered a median survival time in the test on RXF393 cells (1 mg/kg) of 21 days. Moreover, the median survival time in the test with RXF393 cells (3 mg/kg) came out at 21 days. Moreover, in the test on RXF393 cells (10 mg/kg), the median survival time turned out to be 27.5 days. Further, the median survival time in the test on RXF393 cells (30 mg/kg) worked out at 21 days. Moreover, the tumor outgrowth entry with RXF393 cells (1, 3, 10, 30 mg/kg) was “effective at inhibiting tumor outgrowth in a dose-dependent manner with saturating effects at 10 mg/kg dose”.

B2: 68F2 (A8.10) (antibody, V domains shown)
VH: B1 VH
VL: B1 VL
On to B2, for which the Rel. Potency with human IL-6 is recorded as 1.3.

B3: 61H7: anti-IL-6 clone from VH chain shuffling of 24D10; Fab and IgG formats (antibody, V domains shown)
VH: EVQLVESGGGLVQPGGSLRLSCAASGFTFSSYRMYWVRQPPGKGLEWVSAISAGGGSTYYGDSVKGRFTISRDNAKNTVYLQMNSLKPEDTAVYYCANRAGWGMGDYWGQGTQVTVSS
VL: QTVVTQEPSLSVSPGGTVTLTCGLSSGSVTASNYPGWFQQTPGQAPRALIYSTNDRHSGVPSRFSGSISGNKAALTITGAQPEDEADYYCALDIGDITEFGGGTHLTVLG
Regarding B3, in test [3], the ka was found to be 120000 M⁻¹ s⁻¹, the kd is 5.5e-05 s⁻¹, the “RANKED euk (off-rate)” value turned out to be 9.32E−05 and the Average binding was found to be 635 RU. Moreover, the binding in test [3] (periplasmic fractions ('pur' = purified Fab), IL-6 form not stated) worked out at 176. Besides, in test [4], the ka is 120000 M⁻¹ s⁻¹, the kd came to 2e-06 s⁻¹ and the “Bact (off-rate)” value is 7.54E−05. Further, in the test with IL-6 (Ab dose/mouse 0.31 μg), the “SAA, Mouse1” value is 184; the “SAA, Mouse2” value turned out to be 148; the “SAA, Mouse3” value stood at 124; the “SAA, Mouse4” value worked out at 140. Besides, in the test on IL-6 (Ab dose/mouse 0.31 μg), the “SAA, Mouse5” value came out at 133; the “SAA, Mouse6” value is reported as 76; the “SAA, Mean” value was 134.2. Moreover, in the test on IL-6 (Ab dose/mouse 1.25 μg), the “SAA, Mouse1” value is reported as 66; the “SAA, Mouse2” value amounted to 29; the “SAA, Mouse3” value was found to be 33; the “SAA, Mouse4” value is 30. Also, in the test on IL-6 (Ab dose/mouse 1.25 μg), the “SAA, Mouse5” value was determined as 24; the “SAA, Mouse6” value worked out at 35; the “SAA, Mean” value was determined as 36.2. Besides, in the test on IL-6 (Ab dose/mouse 5 μg), the “SAA, Mouse1” value was 47; the “SAA, Mouse2” value was determined as 62; the “SAA, Mouse3” value amounted to 47; the “SAA, Mouse4” value is given as 40. In addition, in the test on IL-6 (Ab dose/mouse 5 μg), the “SAA, Mouse5” value is 46; the “SAA, Mouse6” value turned out to be 47; the “SAA, Mean” value was 48.2. Further, the “in vivo efficacy (block of SAA induction)” value in the test with IL-6 is “in vivo efficacy at least equal to the high potency benchmark controls GL18 and CNTO136”. The “cyno (off-rate)” value in the test with cynomolgus monkey IL-6 [5] stood at 9.45E−05.

B4: 61H7 (A8.11) (antibody, V domains shown)
VH: B3 VH
VL: B3 VL
B4 returned a Rel. Potency in the test with human IL-6 of 0.5.

B5: 61B7: 24D10 chain-shuffled Fab (antibody, V domains shown)
VH: B3 VH with V2L, R33A, Y35S, P40A, L45P, A50R, A53S, T58A, G61A, V79L
VL: B3 VL
B5: in test [3], the ka was 330000 M⁻¹ s⁻¹, the kd was 6.6e-05 s⁻¹, the “RANKED euk (off-rate)” value is recorded as 9.79E−05 and the Average binding was found to be 597 RU. In test [4], the ka worked out at 350000 M⁻¹ s⁻¹, the kd was 5.7e-05 s⁻¹ and the “Bact (off-rate)” value amounted to 9.07E−05. The “cyno (off-rate)” value in the test with cynomolgus monkey IL-6 [5] came to 1.16E−04.

B6: 61H7 (12.8) (antibody, V domains shown)
VH: B3 VH
VL: B3 VL
Consider B6, for which, in the test with human IL-6, the Rel. Potency was 0.4.

For the origin of these results see patent US11827701B2, “IL-6 binding molecules” (argenx BV, priority 2012, dated 2023).
